Values of other authors, collected in article PMC4426885.

Legend:
[1] = target: vinculin (Homo sapiens) (UniProt P18206)
[2] = target: vinculin D1 (Homo sapiens) (UniProt P18206)
[3] = target: vinculin tail (Homo sapiens) (UniProt P18206)

Kd [1] [nM] | Kd [2] [nM] | Kd [3] [nM] | Substance
2 | 2 | – | alpha-actinin peptide vinculin-binding site (from UniProt P12814)
– | – | < 1 | vinculin head (from UniProt P18206)
